Results: paper PMC12262048, “Nodal modulator (NOMO) is a force-bearing transmembrane protein required for muscle differentiation” (The Journal of Cell Biology, 2025)
Positions count from the first letter of the chain named. In names and notes the source's numbering stands. Several values for one entry are separate records, joined by “and”; a condition that tells them apart may be missing. Equal values may be shown once.

B1: His6-Ig 10–11 (NOMO1 Ig-like domains 10–11) (domain or fragment)
chain: AYALAGVSFEIKAEDDQPLPGVLLSLSGGLFRSNLLTQDNGILTFSNLSPGQYYFKPMMKEFRFEPSSQMIEVQEGQNLKITITGYRTAYSCYGTVSSLNGEPEQGVAMEAVGQNDCSIYGEDTVTDEEGKFRLRGLLPGCVYHVQLKAEGNDHIERALPHHRVIEVGNNDIDDVNIIVFRQ
modifications: N-terminal His6 tag omitted; limits not given, set from Ig fold boundaries and the ~20 kD size of Ig 10-11 / N-terminal His6 tag omitted; limits not given, taken from signal peptide end to the Ig
B2: His6-Ig 1–2 (NOMO1 Ig-like domains 1–2) (domain or fragment)
chain: SEDIVVGCGGFVKSDVEINYSLIEIKLYTKHGTLKYQTDCAPNNGYFMIPLYDKGDFILKIEPPLGWSFEPTTVELHVDGVSDICTKGGDINFVFTGFSVNGKVLSKGQPLGPAGVQVSLRNTGTEAKIQSTVTQPGGKFAFFKVLPGDYEILATHPTWALKEASTTVRVTNSNANAASPLIVAGY
modifications: N-terminal His6 tag omitted; limits not given, taken from signal peptide end to the Ig 2/Ig 3 boundary N-terminal His6 tag omitted; limits not given, set from Ig fold boundaries and the ~20 kD size of Ig 10-11
B3: FL WT NOMO (NOMO1^WT-FLAG) (natural protein, human, UniProt Q15155 32-1222, looked up)
chain: SEDIVVGCGGFVKSDVEINYSLIEIKLYTKHGTLKYQTDCAPNNGYFMIPLYDKGDFILKIEPPLGWSFEPTTVELHVDGVSDICTKGGDINFVFTGFSVNGKVLSKGQPLGPAGVQVSLRNTGTEAKIQSTVTQPGGKFAFFKVLPGDYEILATHPTWALKEASTTVRVTNSNANAASPLIVAGYNVSGSVRSDGEPMKGVKFLLFSSLVTKEDVLGCNVSPVPGFQPQDESLVYLCYTVSREDGSFSFYSLPSGGYTVIPFYRGERITFDVAPSRLDFTVEHDSLKIEPVFHVMGFSVTGRVLNGPEGDGVPEAVVTLNNQIKVKTKADGSFRLENITTGTYTIHAQKEHLYFETVTIKIAPNTPQLADIIATGFSVCGQISIIRFPDTVKQMNKYKVVLSSQDKDKSLVTVETDAHGSFCFKAKPGTYKVQVMVPEAETRAGLTLKPQTFPLTVTNRPMMDVAFVQFLASVSGKVSCLDTCGDLLVTLQSLSRQGEKRSLQLSGKVNAMTFTFDNVLPGKYKISIMHEDWCWKNKSLEVEVLEDDMSAVEFRQTGYMLRCSLSHAITLEFYQDGNGRENVGIYNLSKGVNRFCLSKPGVYKVTPRSCHRFEQAFYTYDTSSPSILTLTAIRHHVLGTITTDKMMDVTVTIKSSIDSEPALVLGPLKSVQELRREQQLAEIEARRQEREKNGNEEGEERMTKPPVQEMVDELQGPFSYDFSYWARSGEKITVTPSSKELLFYPPSMEAVVSGESCPGKLIEIHGKAGLFLEGQIHPELEGVEIVISEKGASSPLITVFTDDKGAYSVGPLHSDLEYTVTSQKEGYVLTAVEGTIGDFKAYALAGVSFEIKAEDDQPLPGVLLSLSGGLFRSNLLTQDNGILTFSNLSPGQYYFKPMMKEFRFEPSSQMIEVQEGQNLKITITGYRTAYSCYGTVSSLNGEPEQGVAMEAVGQNDCSIYGEDTVTDEEGKFRLRGLLPGCVYHVQLKAEGNDHIERALPHHRVIEVGNNDIDDVNIIVFRQINQFDLSGNVITSSEYLPTLWVKLYKSENLDNPIQTVSLGQSLFFHFPPLLRDGENYVVLLDSTLPRSQYDYILPQVSFTAVGYHKHITLIFNPTRKLPEQDIAQGSYIALPLTLLVLLAGYNHDKLIPLLLQLTSRLQGVRALGQAASDNSGPEDAKRQAKKQKTRRT
notes: NOMO1 (nodal modulator 1), human, full length; Results and legend call it NOMO-FLAG, the methods Flag-NOMO^WT: the end of the tag is not clear; also called WT NOMO-FLAG; Flag-NOMO^WT; source: Expi293F, transfected, purified (anti-FLAG M2 beads, FLAG peptide elution, SEC) in DDM
B4: NOMOr^4-Mut-FLAG (FL NOMO1 K66E, D70K, D121K, K931E) (natural protein, human, UniProt Q15155 32-1222, looked up)
chain: B3 chain with K35E, D39K, D90K, K900E
notes: NOMO1, human, full length, four charge-reversal mutations at the Ig 1/10/11 interface; Results and legend call it -FLAG, the methods Flag-NOMO^4-Mut: the end of the tag is not clear; also called NOMO^4Mut-FLAG; Flag-NOMO^4-Mut; source: Expi293F, transfected, purified (anti-FLAG M2 beads, FLAG peptide elution, SEC) in DDM

Legend:
[1] = target: T1, His6-Ig 1–2 (NOMO1 Ig-like domains 1–2) (human); assay: ITC; VP-ITC, 25°C; 300 µM His6-Ig 10–11 injected from the syringe into the cell with 20 µM His6-Ig 1–2 or His6-Ig 1–2^3-Mut; 50 mM Tris-HCl pH 7.5, 100 mM NaCl, 5 mM MgCl2, 5 mM CaCl2; n = 3; settings: both partners purified
T1 chain: B2 chain

[2] = target: T2, His6-Ig 10–11 (NOMO1 Ig-like domains 10–11) (human); assay: ITC
T2 chain: B1 chain

[3] = target: the molecule itself; assay: SEC-MALS; room temperature; 50 mM MES pH 6.0, 150 mM KCl, 5 mM CaCl2, 5 mM MgCl2, 2% glycerol, 0.05% DDM; 1–1.5 mg/ml; molar mass corrected for detergent

Binder | stoichiometry N [3] | further results
B1 | – | Kd [1]: 1830 ± 840 nM
B2 | – | Kd [2]: 2800 nM and 1400 nM and 1300 nM
B3 | 2 | –
B4 | 2 | –
